Data published in paper PMC3581365 (The Journal of Biological Chemistry, 2013).

T1: HP0892 fused with His tag at the C terminus (HP0892-His) (H. pylori 26695, UniProt O25552 1-90)
T1 sequence: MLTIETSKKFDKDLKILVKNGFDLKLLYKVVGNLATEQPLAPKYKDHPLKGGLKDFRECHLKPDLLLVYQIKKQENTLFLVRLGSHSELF

T2: HP0893 expressed as a C-terminal His tag fusion (HP0893-His) (H. pylori 26695, UniProt O25553 1-95)
T2 sequence (looked up): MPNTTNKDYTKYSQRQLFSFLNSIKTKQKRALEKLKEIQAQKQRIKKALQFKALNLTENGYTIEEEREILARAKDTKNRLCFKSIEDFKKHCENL


Key:
[1] = biological target: T1, HP0892 fused with His tag at the C …; assay: NMR titration
[2] = biological target: T2, HP0893 expressed as a C-terminal His …; assay: pull-down

Binder | stoichiometry N [1] | stoichiometry N [2]
EREILARAKDTKNRLCFKSIEDFKKHCENL (peptide, UniProt O25553 66-95, looked up) [HP0893Ctp, 30-residue peptide corresponding to the C-terminal region (Glu-66 to Leu-95) of HP0893] | 1 | 
HP0892 without any purification tag or non-native residues (natural protein, H. pylori 26695, UniProt O25552 1-90, looked up) MLTIETSKKFDKDLKILVKNGFDLKLLYKVVGNLATEQPLAPKYKDHPLKGGLKDFRECHLKPDLLLVYQIKKQENTLFLVRLGSHSELF |  | 1
